In paper PMC5384396 (Oncoimmunology, 2017):

How the values were obtained:
[1] = target: T1, hGITR on hGITR-transfected Jurkat cells (human, UniProt Q9Y5U5 26-241); assay: cell-based or functional assay
T1 sequence: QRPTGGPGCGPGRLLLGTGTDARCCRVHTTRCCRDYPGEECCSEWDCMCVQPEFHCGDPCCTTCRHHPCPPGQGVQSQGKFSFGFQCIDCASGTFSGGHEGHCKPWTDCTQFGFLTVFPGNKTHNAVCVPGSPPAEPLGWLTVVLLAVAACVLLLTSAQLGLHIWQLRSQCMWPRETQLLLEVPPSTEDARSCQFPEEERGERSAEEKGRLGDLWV

[2] = target: the molecule itself

B1: hGITRL FP with the yeast GCN4 pII trimerization domain (Fc fusion)
chain: not shown
NFκB-luciferase reporter in hGITR-transfected Jurkat cells, agonism EC50 [1]: 0.89 nM
stoichiometry N [2]: 6
